Substitutions are numbered along the chain they refer to. Names and notes keep the numbering of the source.
T1: GST-IL-18Rβ-TIR (amino acid residues 407-599) (UniProt O95256 407-599)
T1 construct: IL-18Rβ (formerly IL-1AcPL), cytosolic TIR domain, residues 407-599; also called IL-18Rβ TIR domain; IL-1AcPL TIR; source: purified as GST fusion protein (pGEX vector), by methods previously described
T1 sequence (looked up): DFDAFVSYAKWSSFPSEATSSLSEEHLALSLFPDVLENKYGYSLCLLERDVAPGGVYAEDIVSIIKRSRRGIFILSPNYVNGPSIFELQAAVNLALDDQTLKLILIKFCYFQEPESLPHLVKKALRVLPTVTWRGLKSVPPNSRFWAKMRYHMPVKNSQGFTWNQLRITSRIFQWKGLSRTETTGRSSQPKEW

B1: GST-MyD88-TIR (wild type, amino acid residues 148-296) (domain or fragment, UniProt Q99836 148-296, looked up)
chain: TTLDDPLGHMPERFDAFICYCPSDIQFVQEMIRQLEQTNYRLKLCVSDRDVLPGTCVWSIASELIEKRCRRMVVVVSDDYLQSKECDFQTKFALSLSPGAHQKRLIPIKYKAMKKEFPSILRFITVCDYTNPCTKSWFWTRLAKALSLP
notes: MyD88, TIR domain, amino acid residues 148-296; also called wild-type MyD88-TIR; MyD88 TIR domain; source: purified as GST fusion protein (pGEX vector), by methods previously described
B2: GST-MyD88-TIR R196A (148-296) (domain or fragment, UniProt Q99836 148-296, looked up)
chain: B1 chain with R49A
notes: MyD88, TIR domain, residues 148-296, with R196A; also called Site II mutant R196A; source: purified as GST fusion protein (pGEX vector), by methods previously described
B3: GST-MyD88-TIR R288A (148-296) (domain or fragment, UniProt Q99836 148-296, looked up)
chain: B1 chain with R141A
notes: MyD88, TIR domain, residues 148-296, with R288A; also called Site III mutant R288A; source: purified as GST fusion protein (pGEX vector), by methods previously described
B4: GST-MyD88-TIR R217A (148-296) (domain or fragment, UniProt Q99836 148-296, looked up)
chain: B1 chain with R70A
notes: MyD88, TIR domain, residues 148-296, with R217A; also called Site I mutant R217A; source: purified as GST fusion protein (pGEX vector), by methods previously described
B5: GST-IL-18Rα-TIR (amino acid residues 374-541) (domain or fragment, UniProt Q13478 374-541, looked up)
chain: TYDAFVSYLKECRPENGEEHTFAVEILPRVLEKHFGYKLCIFERDVVPGGAVVDEIHSLIEKSRRLIIVLSKSYMSNEVRYELESGLHEALVERKIKIILIEFTPVTDFTFLPQSLKLLKSHRVLKWKADKSLSYNSRFWKNLLYLMPAKTVKPGRDEPEVLPVLSES
notes: IL-18Rα (formerly IL-1Rrp), cytosolic TIR domain, residues 374-541; also called IL-18Rα TIR domain; IL-1Rrp TIR; source: purified as GST fusion protein (pGEX vector), by methods previously described
B6: TRAM-TIR (amino acid residues 66-235) (domain or fragment, human, UniProt Q86XR7 66-235, looked up)
chain: EEMFEEEAEEEVFLKFVILHAEDDTDEALRVQNLLQDDFGIKPGIIFAEMPCGRQHLQNLDDAVNGSAWTILLLTENFLRDTWCNFQFYTSLMNSVNRQHKYNSVIPMRPLNNPLPRERTPFALQTINALEEESRGFPTQVERIFQESVYKTQQTIWKETRNMVQRQFIA
notes: TRAM (TICAM-2), human, TIR domain, residues 66-235; also called TIR domain of human TRAM; TRAM TIR domain; source: purified; subcloned into a pGEX vector, obtained by a similar procedure as previously described for the MyD88-TIR

Biological target: B6
Assay: pull-down; GST fusion proteins held on Glutathione Sepharose 4B, three hours at 4°C; four washes with 20 mM potassium phosphate (pH 6.0), 100 mM KCl, 0.1 mM EDTA, 10 mM DTT, 0.5% Triton X100; SDS-PAGE with Coomassie staining; in triplicate
Conditions: both partners purified

binding result	Binder
binds	B1
binds	B2
binds	B3
binds	B4
binds	B5

Biological target: T1, GST-IL-18Rβ-TIR (amino acid residues …)
Assay: as above
Conditions: both partners purified

binding result	Binder
binds	B6

— PMC3369926, “TRAM Is Involved in IL-18 Signaling and Functions as a Sorting Adaptor for MyD88” (PLoS ONE, 2012)
